Positions count from the first letter of the chain named. Starred links: 1 amine or outer side, 2 acyl side, 3 side chain; linkers in the order of their positions; H or OH if unused. Non-standard residues stand in square brackets, D forms with d. Groups on a side chain read outwards from the residue. No end group written: not given here. *: point of attachment. C18 diacid = O=C(O)CCCCCCCCCCCCCCCCC(=O)*; γGlu = O=C(O)[C@H](CCC(=O)[*:2])N[*:1]; αMe4Pal = C[C@](N)(Cc1ccncc1)C(=O)O; 4Pal = N[C@@H](Cc1ccncc1)C(=O)O; αMeL = CC(C)C[C@](C)(N)C(=O)O; Orn = NCCC[C@H](N)C(=O)O; Aib = CC(C)(N)C(=O)O
T1: human GIP receptor (human) (UniProt P48546)
T1 sequence (looked up): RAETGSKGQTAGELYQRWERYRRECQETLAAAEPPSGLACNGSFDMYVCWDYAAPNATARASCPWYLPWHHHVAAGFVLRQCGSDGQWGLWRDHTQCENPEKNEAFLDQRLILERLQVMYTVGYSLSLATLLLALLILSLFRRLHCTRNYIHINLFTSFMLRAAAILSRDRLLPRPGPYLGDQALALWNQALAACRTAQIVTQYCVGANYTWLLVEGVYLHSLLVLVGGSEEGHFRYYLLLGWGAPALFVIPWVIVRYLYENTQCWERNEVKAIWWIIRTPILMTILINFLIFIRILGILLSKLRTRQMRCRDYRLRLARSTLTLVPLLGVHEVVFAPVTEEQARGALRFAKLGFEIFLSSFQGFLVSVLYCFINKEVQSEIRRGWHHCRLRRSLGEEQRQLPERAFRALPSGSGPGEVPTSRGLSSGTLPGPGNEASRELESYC

B1: Example 1035 (peptide)
chain: YXQGTFTSDXSQXLDXKAQXAFIEYLIAGGPSSGAPPPSGSEE
modifications: non-natural residues; acylated Lys; C-terminal amide; synthetic construct; SITE 2: note = 2-Aminoisobutyric Acid; SITE 10: note = 3-(4-Pyridyl)-L-alanine; SITE 13: note = alpha-methyl-leucine; SITE 16: note = L-ornithine; SITE 17: note = Lysine is chemically modified through conjugation of the epsilon-amino group of the Lysine side chain with (gamma-Gl)
B2: Example 1034 (peptide)
chain: B1 chain
modifications: non-natural residues; lipidated Lys; C-terminal amide; synthetic construct; SITE 2: note = 2-Aminoisobutyric Acid; SITE 10: note = 3-(4-Pyridyl)-L-alanine; SITE 13: note = alpha-methyl-leucine; SITE 16: note = L-ornithine; SITE 17: note = Lysine is chemically modified through conjugation of the epsilon-amino group of the Lysine side chain with D-Glutami
B3: Example 1028 (peptide)
chain: B1 chain with Y25X, A28E, A35E
modifications: non-natural residues; lysine acylated with C18 diacid; C-terminal amide; synthetic construct; SITE 2: note = 2-Aminoisobutyric Acid; SITE 10: note = 3-(4-Pyridyl)-L-alanine; SITE 13: note = alpha-methyl-leucine; SITE 16: note = L-ornithine; SITE 17: note = Lysine is chemically modified through conjugation of the epsilon-amino group of the Lysine side chain with (gamma-Gl)
B4: Example 1008 (peptide)
chain: YXQGTFTSDXSQXLDXKAQXAFIEYLIAGGPSSGEPPPSGSE
modifications: synthetic construct; SITE 2: note = 2-Aminoisobutyric Acid; SITE 10: note = 3-(4-Pyridyl)-L-alanine; SITE 13: note = alpha-methyl-leucine; SITE 16: note = L-ornithine; SITE 17: note = Lysine is chemically modified through conjugation of the epsilon-amino group of the Lysine side chain with (gamma-Gl)
B5: Example 1011 (peptide)
chain: B4 chain with Q12X, E35A
modifications: non-natural residues; Lys acylated C18 diacid; C-terminal amide; synthetic construct; SITE 2: note = 2-Aminoisobutyric Acid; SITE 10: note = 3-(4-Pyridyl)-L-alanine; SITE 12: note = L-ornithine; SITE 13: note = alpha-methyl-leucine; SITE 16: note = L-ornithine; SITE 17: note = Lysine is chemically modified through conjugation of the epsilon-amino group of the Lys
B6: Example 1025 (peptide)
chain: B4 chain with X16K, A28E, G29A, E35A
modifications: synthetic construct; SITE 2: note = 2-Aminoisobutyric Acid; SITE 10: note = 3-(4-Pyridyl)-L-alanine; SITE 13: note = alpha-methyl-leucine; SITE 17: note = Lysine is chemically modified through conjugation of the epsilon-amino group of the Lysine side chain with (gamma-Glu)2-CO-(CH2)16-CO2H; SITE 20:
B7: Example 1023 (peptide)
chain: B4 chain with A28E, G29A, E35A
modifications: not fully specified; acylated lysine (γGlu)2-C18 diacid; non-natural residues; C-terminal amide; synthetic construct; SITE 2: note = 2-Aminoisobutyric Acid; SITE 10: note = 3-(4-Pyridyl)-L-alanine; SITE 13: note = alpha-methyl-leucine; SITE 16: note = L-ornithine; SITE 17: note = Lysine is chemically modified through conjugation of the epsilon-amino group of the Lysine side chain with (gamma-Gl)
B8: Example 1024 (peptide)
chain: B4 chain with X16K, A28E, G29A, E35A
modifications: Aib, 4Pal, αMeL, Me4Pal; K acylated AEEA-(γGlu)2-C18 diacid; amide; synthetic construct; SITE 2: note = 2-Aminoisobutyric Acid; SITE 10: note = 3-(4-Pyridyl)-L-alanine; SITE 13: note = alpha-methyl-leucine; SITE 17: note = Lysine is chemically modified through conjugation of the epsilon-amino group of the Lysine side chain with (2-[2-(2-Amino-ethoxy)-ethoxy]-acetyl)
B9: Example 1009 (peptide)
chain: B4 chain with Q12X, X16K, E35A
modifications: synthetic construct; SITE 2: note = 2-Aminoisobutyric Acid; SITE 10: note = 3-(4-Pyridyl)-L-alanine; SITE 12: note = L-ornithine; SITE 13: note = alpha-methyl-leucine; SITE 17: note = Lysine is chemically modified through conjugation of the epsilon-amino group of the Lysine side chain with (gamma-Gl)
B10: Example 1010 (peptide)
chain: B4 chain with Q12X, X16K, E35A, G40E
modifications: not fully specified; synthetic construct; SITE 2: note = 2-Aminoisobutyric Acid; SITE 10: note = 3-(4-Pyridyl)-L-alanine; SITE 12: note = L-ornithine; SITE 13: note = alpha-methyl-leucine; SITE 17: note = Lysine is chemically modified through conjugation of the epsilon-amino group of the Lysine side chain with (gamma-Gl)
B11: Example 1022 (peptide)
chain: B4 chain with A28E, G29A, E35A
modifications: not fully specified; Aib, 4Pal, αMeL, Orn, Me4Pal, acylated K, C-terminal amide; synthetic construct; SITE 2: note = 2-Aminoisobutyric Acid; SITE 10: note = 3-(4-Pyridyl)-L-alanine; SITE 13: note = alpha-methyl-leucine; SITE 16: note = L-ornithine; SITE 17: note = Lysine is chemically modified through conjugation of the epsilon-amino group of the Lysine side chain with (2-[2-(2-
B12: Example 1012 (peptide)
chain: B4 chain with Q12X, E35A, G40E
modifications: Aib, 4Pal, Orn, αMeL, Me4Pal; K (γGlu)2-C18 diacid; amide; synthetic construct; SITE 2: note = 2-Aminoisobutyric Acid; SITE 10: note = 3-(4-Pyridyl)-L-alanine; SITE 12: note = L-ornithine; SITE 13: note = alpha-methyl-leucine; SITE 16: note = L-ornithine; SITE 17: note = Lysine is chemically modified through conjugation of the epsilon-amino group of the Lys

Columns and labels:
Test in all cases: cell-based or functional assay
hGLP-1R = hGLP-1R (Homo sapiens, UniProt P43220)
Sequence of hGLP-1R (P43220 24-463): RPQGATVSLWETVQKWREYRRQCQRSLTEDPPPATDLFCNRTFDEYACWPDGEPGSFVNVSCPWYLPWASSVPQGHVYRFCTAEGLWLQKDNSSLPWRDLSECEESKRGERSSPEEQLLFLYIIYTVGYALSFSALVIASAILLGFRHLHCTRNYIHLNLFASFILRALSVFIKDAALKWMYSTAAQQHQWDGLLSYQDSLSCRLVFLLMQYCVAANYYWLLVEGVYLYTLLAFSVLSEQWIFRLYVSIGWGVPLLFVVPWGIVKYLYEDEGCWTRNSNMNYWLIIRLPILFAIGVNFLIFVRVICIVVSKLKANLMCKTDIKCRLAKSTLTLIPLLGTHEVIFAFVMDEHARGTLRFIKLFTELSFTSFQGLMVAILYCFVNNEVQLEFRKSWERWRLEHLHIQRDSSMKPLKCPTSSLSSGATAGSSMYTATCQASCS

[1] = target: T1, human GIP receptor (human)
[2] = target: human glucagon receptor (human) (UniProt P47871)
Sequence of human glucagon receptor (human) (P47871 26-477): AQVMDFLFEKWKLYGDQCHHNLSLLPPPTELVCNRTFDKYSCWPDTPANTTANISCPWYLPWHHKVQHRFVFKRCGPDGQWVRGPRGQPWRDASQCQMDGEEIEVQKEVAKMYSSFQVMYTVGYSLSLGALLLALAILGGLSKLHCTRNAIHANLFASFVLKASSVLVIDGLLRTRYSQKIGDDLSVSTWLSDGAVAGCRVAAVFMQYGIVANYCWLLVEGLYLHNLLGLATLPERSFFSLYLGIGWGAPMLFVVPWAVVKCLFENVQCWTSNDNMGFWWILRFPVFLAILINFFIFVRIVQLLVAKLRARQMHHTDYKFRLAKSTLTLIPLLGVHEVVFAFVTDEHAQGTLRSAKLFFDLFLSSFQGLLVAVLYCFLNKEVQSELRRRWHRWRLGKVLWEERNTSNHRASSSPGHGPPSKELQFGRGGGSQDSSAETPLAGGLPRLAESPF

Binder | cAMP Rel EC50, nM (1% HSA) (hGLP-1R) | cAMP Rel EC50, nM (1% HSA) [1] | cAMP Rel EC50, nM (1% HSA) [2] | Relative cAMP EC50 (hGLP-1R) | Relative cAMP EC50 [1] | Relative cAMP EC50 [2]
B1 | 167 nM | 16 nM | 1380 nM |  |  | 
B2 | 317 nM | 23 nM | 1890 nM |  |  | 
B3 | 986 nM | 157 nM | 3910 nM | 1.34 nM | 0.189 nM | 5.77 nM
B4 | 126 nM | 15.2 nM | 1010 nM | 1.09 nM | 0.14 nM | 7.47 nM
B5 | 148 nM | 13.5 nM | 459 nM |  |  | 
B6 | 352 nM | 31.5 nM | 625 nM | 2.45 nM | 0.18 nM | 3.22 nM
B7 | 230 nM | 26 nM | 856 nM |  |  | 
B8 | 330 nM | 32.5 nM | 760 nM |  |  | 
B9 | 174 nM | 9.72 nM | 268 nM | 2.1 nM | 0.13 nM | 4.21 nM
B10 | 218 nM | 15.1 nM | 214 nM | 2.89 nM | 0.159 nM | 4.5 nM
B11 | 203 nM | 27.9 nM | 586 nM |  |  | 
B12 | 223 nM | 15.9 nM | 533 nM |  |  | 
Y[Aib]QGTFTSD[4Pal]SQ[αMeL]LD[Orn]KK([Glu-γGlu-C18 diacid])AQ[αMe4Pal]AFIEYLIAGGPSSGAPPPSGSEE-NH2 [Example 1032] | 148 nM | 21.9 nM | 900 nM |  |  | 

— patent US20240270821A1, “GIP/GLP1/GCG TRI-RECEPTOR AGONISTS AND USES THEREOF” (priority 2023, published 2024)
